Source: paper PMC9352680, “A comprehensive thermodynamic model for RNA binding by the Saccharomyces cerevisiae Pumilio protein PUF4”

Target: T1, PUF4 RNA-binding domain (Saccharomyces cerevisiae, UniProt P25339 537-888)
T1 sequence: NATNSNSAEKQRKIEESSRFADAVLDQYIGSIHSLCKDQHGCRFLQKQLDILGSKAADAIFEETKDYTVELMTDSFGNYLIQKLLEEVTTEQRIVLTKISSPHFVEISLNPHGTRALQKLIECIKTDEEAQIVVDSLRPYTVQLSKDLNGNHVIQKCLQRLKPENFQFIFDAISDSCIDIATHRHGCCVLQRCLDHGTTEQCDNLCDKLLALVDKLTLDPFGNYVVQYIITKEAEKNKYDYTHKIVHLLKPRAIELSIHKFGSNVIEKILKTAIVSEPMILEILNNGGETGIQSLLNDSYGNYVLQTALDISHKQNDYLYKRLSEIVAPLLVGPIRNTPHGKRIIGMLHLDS
Assay: Mg; RNA-MaP; 20 mM Na-HEPES pH 7.4, 30 mM KOAc, 0.75 mM MgCl2, 0.1% Tween-20, 5% glycerol, 0.1 mg/mL BSA, 2 mM DTT; 25 C; 0.0125-409.6 nM protein
Details: tags: N-His6-TEV cleaved; C-SNAP kept, Cy3B-labelled; label: tethered on chip by stalled RNA polymerase

ACAAACUCUCGUAUUAUUAACAAAC (ssRNA) [Ie_S3_P5E.1_K5.1_C5.1_H5.1_[+1CTC]_A5.1_F5.1_T5.1]
Kd: 1830 nM

ACAAACUGCUUAUUAUUAACAAAC (ssRNA) [Ie_S3_P5E.1_K5.1_C5.1_H5.1_[+2CT]_A5.1_F5.1_T5.1]
Kd: > 2300 nM

ACAAACUGUCUAUUAUUAACAAAC (ssRNA) [Ie_S3_P5E.1_K5.1_C5.1_H5.1_[+3CT]_A5.1_F5.1_T5.1]
Kd: 28.6 nM

ACAAACUGUCCUAUUAUUAACAAAC (ssRNA) [Ie_S3_P5E.1_K5.1_C5.1_H5.1_[+2TCC]_A5.1_F5.1_T5.1]
Kd: 101 nM

ACAAACUGCUUUAUUAUUAACAAAC (ssRNA) [Ie_S3_P5E.1_K5.1_C5.1_H5.1_[+2CTT]_A5.1_F5.1_T5.1]
Kd: > 2300 nM

ACAAACUGCCUCUAUUAUUAACAAAC (ssRNA) [Ie_S3_P5E.1_K5.1_C5.1_H5.1_[+2CCTC]_A5.1_F5.1_T5.1]
Kd: > 2300 nM

ACAAACUGUCUCUUAUUAUUAACAAAC (ssRNA) [Ie_S3_P5E.1_K5.1_C5.1_H5.1_[+2TCTCT]_A5.1_F5.1_T5.1]
Kd: 513 nM

B1: Ib_S2_P3E.1_K3.1_C3.1_H3.1_[T1A]_A3.1_[T5C]_F3.1_T3.1 (ssRNA)
RNA: UUUGAUUAAUAUGAUAUCGUUCUUUCUAGUACAUAUUCUUUCUCGAUAUCAUAUUAAUCUUU
Kd: > 2300 nM

ACAAACUGUCUCUAUUAUUAACAAAC (ssRNA) [Ie_S3_P5E.1_K5.1_C5.1_H5.1_[+3CTCT]_A5.1_F5.1_T5.1]
Kd: 366 nM

ACAAACUGUCCCUUAUUAUUAACAAAC (ssRNA) [Ie_S3_P5E.1_K5.1_C5.1_H5.1_[+3CCCTT]_A5.1_F5.1_T5.1]
Kd: 698 nM

ACAAACUGUACUCUUAUUAACAAAC (ssRNA) [Ie_S3_P5E.1_K5.1_C5.1_H5.1_[+4CTC]_A5.1_F5.1_T5.1]
Kd: 7.73 nM

ACAAACUGUACCUCUUAUUAACAAAC (ssRNA) [Ie_S3_P5E.1_K5.1_C5.1_H5.1_[+4CCTC]_A5.1_F5.1_T5.1]
Kd: 27.2 nM

ACAAACUGUACCUCUUUAUUAACAAAC (ssRNA) [Ie_S3_P5E.1_K5.1_C5.1_H5.1_[+4CCTCT]_A5.1_F5.1_T5.1]
Kd: 52.5 nM

ACAAACUGUACCCUUUUAUUAACAAAC (ssRNA) [Ie_S3_P5E.1_K5.1_C5.1_H5.1_[+4CCCTT]_A5.1_F5.1_T5.1]
Kd: 30.4 nM

ACAAACUGUAUCUCUCUAUUAACAAAC (ssRNA) [Ie_S3_P5E.1_K5.1_C5.1_H5.1_A5.1_[+5CTCTC]_F5.1_T5.1]
Kd: 30.4 nM

ACAAACUGUAUCCCUUUAUUAACAAAC (ssRNA) [Ie_S3_P5E.1_K5.1_C5.1_H5.1_A5.1_[+5CCCTT]_F5.1_T5.1]
Kd: 92.6 nM

ACAAACUGUAUUCCCAUUAACAAAC (ssRNA) [Ie_S3_P5E.1_K5.1_C5.1_H5.1_A5.1_[+6CCC]_F5.1_T5.1]
Kd: 203 nM

ACAAACUGUAUUUCUAUUAACAAAC (ssRNA) [Ie_S3_P5E.1_K5.1_C5.1_H5.1_A5.1_[+6TCT]_F5.1_T5.1]
Kd: 7.3 nM

B2: Ib_S2_P3E.1_K3.1_C3.1_H3.1_[T1G]_A3.1_[A6G]_F3.1_T3.1 (ssRNA)
RNA: UUUGAUUAAUAUGAUAUCGUUCUUUCUGGUAUGUAUUCUUUCUCGAUAUCAUAUUAAUCUUU
Kd: 277 nM

ACAAACUGUAUUUCUCUAUUAACAAAC (ssRNA) [Ie_S3_P5E.1_K5.1_C5.1_H5.1_A5.1_[+6TCTCT]_F5.1_T5.1]
Kd: 38.4 nM

ACAAACUGUAUUACCCUUAACAAAC (ssRNA) [Ie_S3_P5E.1_K5.1_C5.1_H5.1_A5.1_[+7CCC]_F5.1_T5.1]
Kd: 510 nM

ACAAACUGUAUUACCUUUAACAAAC (ssRNA) [Ie_S3_P5E.1_K5.1_C5.1_H5.1_A5.1_[+7CCT]_F5.1_T5.1]
Kd: 221 nM

ACAAACUGUAUUACUUUUAACAAAC (ssRNA) [Ie_S3_P5E.1_K5.1_C5.1_H5.1_A5.1_[+7CTT]_F5.1_T5.1]
Kd: 115 nM

ACAAACUGUAUUACUCUCUUAACAAAC (ssRNA) [Ie_S3_P5E.1_K5.1_C5.1_H5.1_A5.1_[+7CTCTC]_F5.1_T5.1]
Kd: 128 nM

ACAAACUGUAUUAUCCCUAACAAAC (ssRNA) [Ie_S3_P5E.1_K5.1_C5.1_H5.1_A5.1_F5.1_[+8CCC]_T5.1]
Kd: 37.5 nM

ACAAACUGUAUUAUUUCUAACAAAC (ssRNA) [Ie_S3_P5E.1_K5.1_C5.1_H5.1_A5.1_F5.1_[+8TTC]_T5.1]
Kd: 19.1 nM

ACAAACUGUAUUAUUUCCUAACAAAC (ssRNA) [Ie_S3_P5E.1_K5.1_C5.1_H5.1_A5.1_F5.1_[+8TTCC]_T5.1]
Kd: 21.6 nM

ACAAACUGUAUUAUCUCUCUAACAAAC (ssRNA) [Ie_S3_P5E.1_K5.1_C5.1_H5.1_A5.1_F5.1_[+8CTCTC]_T5.1]
Kd: 29.1 nM

ACAAACUGUAUUAUUCCCAACAAAC (ssRNA) [Ie_S3_P5E.1_K5.1_C5.1_H5.1_A5.1_F5.1_[+9CCC]_T5.1]
Kd: 18.1 nM

B3: Ib_S2_P3E.1_K3.1_C3.1_H3.1_[T1G]_A3.1_[A6T]_F3.1_T3.1 (ssRNA)
RNA: UUUGAUUAAUAUGAUAUCGUUCUUUCUGGUAUUUAUUCUUUCUCGAUAUCAUAUUAAUCUUU
Kd: > 2300 nM

ACAAACUGUAUUAUUCCUAACAAAC (ssRNA) [Ie_S3_P5E.1_K5.1_C5.1_H5.1_A5.1_F5.1_[+9CCT]_T5.1]
Kd: 19.9 nM

ACAAACUGUAUUAUUCUCAACAAAC (ssRNA) [Ie_S3_P5E.1_K5.1_C5.1_H5.1_A5.1_F5.1_[+9CTC]_T5.1]
Kd: 23 nM

ACAAACUGUAUUAUUUUCAACAAAC (ssRNA) [Ie_S3_P5E.1_K5.1_C5.1_H5.1_A5.1_F5.1_[+9TTC]_T5.1]
Kd: 19.8 nM

ACAAACUGUAUUAUUUCUCAACAAAC (ssRNA) [Ie_S3_P5E.1_K5.1_C5.1_H5.1_A5.1_F5.1_[+9TCTC]_T5.1]
Kd: 19.4 nM

ACAAACUGUAUUAUUCCUCUAACAAAC (ssRNA) [Ie_S3_P5E.1_K5.1_C5.1_H5.1_A5.1_F5.1_[+9CCTCT]_T5.1]
Kd: 20.7 nM

ACAAACUGUAUUAUUAUCCACAAAC (ssRNA) [Ie_S3_P5E.1_K5.1_C5.1_H5.1_A5.1_F5.1_[+10TCC]_T5.1]
Kd: 5.94 nM

B4: Ie_S4_P3E.2_K3.1_C3.2_[+-2T]_H3.1_A3.1_F3.1_T3.2 (ssRNA)
RNA: UUUGACAACUGAUCGUUCUUUCUCUUUGUAUAUAUAUUCUUUCUCGAUCAGUUGUCUUU
Kd: 0.987 nM

B5: Ie_S4_P3E.2_K3.1_C3.2_[+-1CT]_H3.1_A3.1_F3.1_T3.2 (ssRNA)
RNA: UUUGACAACUGAUCGUUCUUUCUCUCUUGUAUAUAUAUUCUUUCUCGAUCAGUUGUCUUU
Kd: 0.942 nM

B6: Ie_S4_P3E.2_K3.1_C3.2_[+-2CCC]_H3.1_A3.1_F3.1_T3.2 (ssRNA)
RNA: UUUGACAACUGAUCGUUCUUUCUCCCCUUGUAUAUAUAUUCUUUCUCGAUCAGUUGUCUUU
Kd: 0.858 nM

B7: Ie_S4_P3E.2_K3.1_C3.2_[+-2TTCC]_H3.1_A3.1_F3.1_T3.2 (ssRNA)
RNA: UUUGACAACUGAUCGUUCUUUCUCUUCCUUGUAUAUAUAUUCUUUCUCGAUCAGUUGUCUUU
Kd: 1.01 nM

B8: Ib_S2_P3E.1_K3.1_C3.1_H3.1_[T1C]_A3.1_[A6G]_F3.1_T3.1 (ssRNA)
RNA: UUUGAUUAAUAUGAUAUCGUUCUUUCUCGUAUGUAUUCUUUCUCGAUAUCAUAUUAAUCUUU
Kd: 75.7 nM

B9: Ie_S4_P3E.2_K3.1_C3.2_[+-2CCCTT]_H3.1_A3.1_F3.1_T3.2 (ssRNA)
RNA: UUUGACAACUGAUCGUUCUUUCUCCCCUUUUGUAUAUAUAUUCUUUCUCGAUCAGUUGUCUUU
Kd: 0.884 nM

B10: Ie_S4_P3E.2_K3.1_C3.2_[+-1C]_H3.1_A3.1_F3.1_T3.2 (ssRNA)
RNA: UUUGACAACUGAUCGUUCUUUCUCUCUGUAUAUAUAUUCUUUCUCGAUCAGUUGUCUUU
Kd: 1.07 nM

B11: Ie_S4_P3E.2_K3.1_C3.2_[+-1TC]_H3.1_A3.1_F3.1_T3.2 (ssRNA)
RNA: UUUGACAACUGAUCGUUCUUUCUCUUCUGUAUAUAUAUUCUUUCUCGAUCAGUUGUCUUU
Kd: 0.769 nM

B12: Ie_S4_P3E.2_K3.1_C3.2_[+-1TT]_H3.1_A3.1_F3.1_T3.2 (ssRNA)
RNA: UUUGACAACUGAUCGUUCUUUCUCUUUUGUAUAUAUAUUCUUUCUCGAUCAGUUGUCUUU
Kd: 1.2 nM

B13: Ie_S4_P3E.2_K3.1_C3.2_[+-1CCC]_H3.1_A3.1_F3.1_T3.2 (ssRNA)
RNA: UUUGACAACUGAUCGUUCUUUCUCUCCCUGUAUAUAUAUUCUUUCUCGAUCAGUUGUCUUU
Kd: 0.986 nM

B14: Ie_S4_P3E.2_K3.1_C3.2_[+-1CCT]_H3.1_A3.1_F3.1_T3.2 (ssRNA)
RNA: UUUGACAACUGAUCGUUCUUUCUCUCCUUGUAUAUAUAUUCUUUCUCGAUCAGUUGUCUUU
Kd: 0.625 nM

B15: Ie_S4_P3E.2_K3.1_C3.2_H3.1_[+1CCT]_A3.1_F3.1_T3.2 (ssRNA)
RNA: UUUGACAACUGAUCGUUCUUUCUCUUCCUGUAUAUAUAUUCUUUCUCGAUCAGUUGUCUUU
Kd: 1.07 nM

B16: Ie_S4_P3E.2_K3.1_C3.2_[+-1CTT]_H3.1_A3.1_F3.1_T3.2 (ssRNA)
RNA: UUUGACAACUGAUCGUUCUUUCUCUCUUUGUAUAUAUAUUCUUUCUCGAUCAGUUGUCUUU
Kd: 1.24 nM

B17: Ie_S4_P3E.2_K3.1_C3.2_[+-1TTT]_H3.1_A3.1_F3.1_T3.2 (ssRNA)
RNA: UUUGACAACUGAUCGUUCUUUCUCUUUUUGUAUAUAUAUUCUUUCUCGAUCAGUUGUCUUU
Kd: 1.03 nM

B18: Ie_S4_P3E.2_K3.1_C3.2_[+-1CCTC]_H3.1_A3.1_F3.1_T3.2 (ssRNA)
RNA: UUUGACAACUGAUCGUUCUUUCUCUCCUCUGUAUAUAUAUUCUUUCUCGAUCAGUUGUCUUU
Kd: 1.06 nM

B19: Ic_S2_P3E.1_K3.1_C3.1_H3.1_A3.1_[T5A]_F3.1_T3.1 (ssRNA)
RNA: UUUGAUUAAUAUGAUAUCGUUCUUUCUUGUAAAUAUUCUUUCUCGAUAUCAUAUUAAUCUUU
Kd: 14.9 nM

B20: Ib_S2_P3E.1_K3.1_C3.1_H3.1_[T1A]_A3.1_[A6G]_F3.1_T3.1 (ssRNA)
RNA: UUUGAUUAAUAUGAUAUCGUUCUUUCUAGUAUGUAUUCUUUCUCGAUAUCAUAUUAAUCUUU
Kd: 257 nM

B21: Ie_S4_P3E.2_K3.1_C3.2_[+-1CCCT]_H3.1_A3.1_F3.1_T3.2 (ssRNA)
RNA: UUUGACAACUGAUCGUUCUUUCUCUCCCUUGUAUAUAUAUUCUUUCUCGAUCAGUUGUCUUU
Kd: 0.775 nM
